Experimental data reported in PMC5017159.

Key:
[1] = biological target: human heat shock protein 70 (hHsp70) (human) (UniProt P0DMV8); test: BLI; Octet Red; biotinylated hHsp70 immobilised on streptavidin tips, dipped into E. coli GAPDH (39.5, 59.3, 88.9, 133.3 and 200 nM) in PBS; association 600 s, dissociation 900 s; 1:1 model
[2] = biological target: human GAPDH (human) (UniProt P04406); test: BLI; Octet Red; biotinylated human GAPDH immobilised on streptavidin tips, dipped into hHsp70 (2.05, 5.12, 12.8, 32 and 80 nM) in PBS; association 600 s, dissociation 900 s; 1:1 model
Sequence of UniProt P04406 (P04406 whole entry): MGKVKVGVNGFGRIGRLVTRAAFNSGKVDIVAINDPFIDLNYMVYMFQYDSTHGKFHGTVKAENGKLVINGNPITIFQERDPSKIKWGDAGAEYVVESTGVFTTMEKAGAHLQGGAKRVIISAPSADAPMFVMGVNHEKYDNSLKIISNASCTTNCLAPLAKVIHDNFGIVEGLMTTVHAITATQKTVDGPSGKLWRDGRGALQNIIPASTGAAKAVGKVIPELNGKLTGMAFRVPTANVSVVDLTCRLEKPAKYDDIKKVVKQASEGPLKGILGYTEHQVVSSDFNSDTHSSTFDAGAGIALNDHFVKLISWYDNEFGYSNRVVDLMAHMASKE

| Substance | Kd [1] [nM] | koff [1] [s⁻¹] | kon [1] [M⁻¹ s⁻¹] | Kd [2] [nM] | koff [2] [s⁻¹] | kon [2] [M⁻¹ s⁻¹] |
| --- | --- | --- | --- | --- | --- | --- |
| E. coli glyceraldehyde 3-phosphate deshydrogenase (GAPDH), recombinant (from UniProt P0A9B2 1-331) (enzyme) | 8.2 | 0.00024 | 29300 | – | – | – |
| human heat shock protein 70 (hHsp70) (from UniProt P0DMV8 1-641) (natural protein) | – | – | – | 1.3 | 9.3e-05 | 72400 |
